Measured values taken from publication PMC8359183, “The periplasmic domains of Vibriocholerae ToxR and ToxS are forming a strong heterodimeric complex independent on the redox state of ToxR cysteines” (Molecular Microbiology, 2021).

How the values were obtained:
[1] = biological target: T1, ToxSp H10_S11insC labelled with 5-iodoacetamidofluorescein (Vibrio cholerae); test: fluorescence polarisation; details: both partners purified
T1 construct: also called FITC ToxSp H10_S11insC
T1 chain: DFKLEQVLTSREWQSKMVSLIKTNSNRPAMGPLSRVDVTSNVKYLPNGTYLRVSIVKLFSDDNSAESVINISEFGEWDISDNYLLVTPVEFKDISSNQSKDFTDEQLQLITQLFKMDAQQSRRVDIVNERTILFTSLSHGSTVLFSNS

[2] = biological target: T2, periplasmic domain of Vibrio cholerae ToxS (ToxSp) (Vibrio cholerae); test: SEC-MALS; details: both partners purified
T2 chain: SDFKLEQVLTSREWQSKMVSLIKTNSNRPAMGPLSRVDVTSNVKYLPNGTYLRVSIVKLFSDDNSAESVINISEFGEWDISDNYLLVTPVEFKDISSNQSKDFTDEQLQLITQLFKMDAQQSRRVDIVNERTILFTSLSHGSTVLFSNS

B1: periplasmic domain of Vibrio cholerae ToxR, oxidized, with an intramolecular disulfide bond (ToxRp-ox) (domain or fragment)
chain: PSQTSFKPLTVVDGVAVNMPNNHPDLSNWLPSIELCVKKYNEKHTGGLKPIEVIATGGQNNQLTLNYIHSPEVSGENITLRIVANPNDAIKVCE
notes: also called pToxR-ox; ToxRp-ox-V.c
Kd [1]: 11.6 ± 3.4 nM
stoichiometry N [2]: 1 ToxRp per ToxSp
